Results from patent publication US20110257105A1 (CARA THERAPEUTICS, published 2011).
Square brackets hold non-standard residues; d marks the D form. Ends that are not written are not given here. dAgb = N=C(N)NCC[C@@H](N)C(=O)O; dNle = CCCC[C@@H](N)C(=O)O

B1: Compound (52): D-Phe-D-Phe-D-Leu-(D-Lys-GlyLactam)2-D-Leu-D-Phe-D-Phe (peptide)
peptide: [dF][dF][dL][dK]G
modifications: not fully specified (bridges); printed as D-Phe-D-Phe-D-Leu-(D-Lys-GlyLactam)2-D-Leu-D-Phe-D-Phe; also: two chains joined through (D-Lys-Gly lactam)2 linker
B2: Compound (3): D-Phe-D-Phe-D-Nle-D-Arg-D-Pro-OH (peptide)
peptide: [dF][dF][dNle][dR][dP]-OH
modifications: N-terminus assumed
SMILES: CCCC[C@@H](NC(=O)[C@@H](Cc1ccccc1)NC(=O)[C@H](N)Cc1ccccc1)C(=O)N[C@H](CCCNC(=N)N)C(=O)N1CCC[C@@H]1C(=O)O
B3: Compound (49): 1N,4N-bis-[D-Phe-D-Phe-D-Leu-(iPr)D-Orn]-4-amino-4-carboxylic-piperidine (peptide)
peptide: [dF][dF][dL][dOrn(iPr)]-{4‑amino‑4‑carboxylic piperidine}
modifications: also: two identical chains joined through C-termini to N1 and 4-amino group of piperidine scaffold
B4: Compound (50): 1N,4N-bis-[D-Phe-D-Phe-D-Leu-D-Dap(amidino)]-4-amino-4-carboxylic piperidine (peptide)
peptide: [dF][dF][dL][dDap(amidino)]-{4‑amino‑4‑carboxylic piperidine}
modifications: also: two identical chains joined through C-termini to N1 and 4-amino group of piperidine scaffold
B5: Compound (51): 1N,4N-bis-(D-Phe-D-Phe-D-Leu-D-Nar)-4-amino-4-carboxylic piperidine (peptide)
peptide: [dF][dF][dL][dAgb]-{4‑amino‑4‑carboxylic piperidine}
modifications: also: two identical chains joined through C-termini to N1 and 4-amino group of piperidine scaffold

Each molecule was assayed against mouse kappa opioid receptor (mouse) (UniProt P33534) (assay: cell-based or functional assay).
Chain of mouse kappa opioid receptor (mouse) (P33534 whole entry): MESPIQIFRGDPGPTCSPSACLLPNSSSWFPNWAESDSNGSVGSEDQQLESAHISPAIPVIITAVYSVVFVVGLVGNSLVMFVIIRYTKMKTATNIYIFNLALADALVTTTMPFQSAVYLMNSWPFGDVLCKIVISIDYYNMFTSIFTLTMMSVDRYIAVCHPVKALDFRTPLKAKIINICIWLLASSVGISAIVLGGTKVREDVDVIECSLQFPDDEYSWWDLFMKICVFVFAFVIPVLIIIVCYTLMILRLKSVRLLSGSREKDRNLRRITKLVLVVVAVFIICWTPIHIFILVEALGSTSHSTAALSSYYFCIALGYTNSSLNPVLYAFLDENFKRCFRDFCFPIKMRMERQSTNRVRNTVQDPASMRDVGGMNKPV

Row | Molecule | EC50 (nM), cAMP inhibition in R1.G1 cells [nM] | Efficacy(%), cAMP inhibition in R1.G1 cells [%]
1 | Compound (39): D-Phe-D-Phe-D-Leu-D-Orn-[eLys(D-Orn-D-Leu-H)]-OH (peptide) | 67.3 | 35
2 | B1 | 13.8 | 76

The molecules below were run against mouse kappa opioid receptor (mouse, UniProt P33534 1-380) (assay: cell-based or functional assay).
Chain of mouse kappa opioid receptor (P33534 whole entry): as above

Row | Molecule | EC50 (nM), cAMP inhibition in R1.G1 cells [nM] | Efficacy(%), cAMP inhibition in R1.G1 cells [%]
3 | B2 | 9.05 | 88
4 | B3 | 1.83 | 50
5 | B4 | 56.7 | 77
6 | B5 | 95.8 | 60
